Our source for the self-cleavage values is the RNAGym collection of RNA variant scans (doi:10.7554/elife.90254).

First the molecules themselves.
B1: LINE1-mini (parent)
chain: GGCAGAGCUCAACACAGCGUGGCAAAGUGGCUGUGGCUAGACUGCC

In this data set the parent is B1. In words: self-cleavage, relative activity (ratio to wild type); higher = more cleavage; in vitro, sequencing; the parent is a self-cleaving ribozyme.
Take G22U C23A: the self-cleavage worked out at 1.25.

Consider G22U C23U, for which the self-cleavage worked out at 1.8.

G22U C23G: the self-cleavage was 2.27.

For the variant C23A G27C, the self-cleavage was 0.81.

For C23A G27A, the self-cleavage came out at 0.92.

Regarding C23A G27U, the self-cleavage stood at 0.72.

On to C23U C31G, for which the self-cleavage amounted to 0.16.

For C23U C31U, the self-cleavage was 0.47.

Regarding C23U C31A, the self-cleavage was determined as 0.24.

As to C23G G36U, the self-cleavage was found to be 0.07.

With C23G G36C, the self-cleavage is 0.11.

Turning to C23G G36A, the self-cleavage is 0.14.

Consider C23U U28G, for which the self-cleavage was found to be 0.6.

As for C23U U28A, the self-cleavage is 0.82.

As to C23U U28C, the self-cleavage is 1.37.

For the variant G22U C31U, the self-cleavage is 0.4.

With G22U C31A, the self-cleavage is 0.2.

For G22U C31G, the self-cleavage was determined as 0.22.

C23U A25C: the self-cleavage stood at 0.86.

On to C23U A25G, for which the self-cleavage turned out to be 1.17.

Regarding C23U A25U, the self-cleavage was determined as 0.93.

As for C23U G36U, the self-cleavage came out at 0.04.

Consider C23U G36C, for which the self-cleavage came out at 0.07.

Regarding C23U G36A, the self-cleavage worked out at 0.14.

With C23G G30U, the self-cleavage is 0.75.

Take C23G G30C: the self-cleavage is 2.06.

As for C23G G30A, the self-cleavage is 1.88.

In the case of C23U A24U, the self-cleavage amounted to 0.84.

Take C23U A24C: the self-cleavage worked out at 0.71.

On to C23U A24G, for which the self-cleavage was determined as 0.88.

Consider G22U G35C, for which the self-cleavage came to 0.22.

As for G22U G35U, the self-cleavage turned out to be 0.39.

Take G22U G35A: the self-cleavage was 0.15.

On to A24C A26G, for which the self-cleavage amounted to 0.33.

As to A24C A26C, the self-cleavage was 0.28.

With A24C A26U, the self-cleavage was determined as 0.43.

Regarding C23G C42G, the self-cleavage stood at 0.03.

On to C23G C42U, for which the self-cleavage came out at 0.47.

Take C23G C42A: the self-cleavage turned out to be 0.19.

Turning to A24C G35A, the self-cleavage was determined as 0.09.

Consider A24C G35C, for which the self-cleavage amounted to 0.06.

A24C G35U: the self-cleavage worked out at 0.05.

For C23A G30U, the self-cleavage turned out to be 1.16.

For the variant C23A G30A, the self-cleavage was found to be 1.34.

For C23A G30C, the self-cleavage worked out at 2.68.

Consider G22U G27A, for which the self-cleavage was determined as 1.04.

G22U G27C: the self-cleavage came out at 0.57.

In the case of G22U G27U, the self-cleavage is 1.46.

Take G22U C46G: the self-cleavage was found to be 0.91.

With G22U C46A, the self-cleavage worked out at 1.15.

As to G22U C46U, the self-cleavage stood at 1.22.

As to C23A C45A, the self-cleavage was 1.12.

On to C23A C45G, for which the self-cleavage stood at 0.42.

In the case of C23A C45U, the self-cleavage stood at 1.97.

Consider G22U A25G, for which the self-cleavage was determined as 1.01.

As for G22U A25U, the self-cleavage was 1.49.

Turning to G22U A25C, the self-cleavage amounted to 0.65.

With C23A U28A, the self-cleavage was 0.78.

In the case of C23A U28G, the self-cleavage was determined as 0.44.

Take C23A U28C: the self-cleavage was found to be 0.88.

For G22U G29A, the self-cleavage stood at 1.67.

As to G22U G29C, the self-cleavage came to 0.84.

Turning to G22U G29U, the self-cleavage was found to be 0.72.

C23G G44A: the self-cleavage was 0.41.

Turning to C23G G44C, the self-cleavage was found to be 0.2.

As for C23G G44U, the self-cleavage amounted to 0.16.

Turning to G22U A24G, the self-cleavage was found to be 1.25.

Turning to G22U A24C, the self-cleavage stood at 0.92.

As to G22U A24U, the self-cleavage came out at 1.4.

In the case of G22U G40U, the self-cleavage amounted to 0.15.

As for G22U G40A, the self-cleavage worked out at 0.2.

Regarding G22U G40C, the self-cleavage turned out to be 0.18.

Turning to C23U U34A, the self-cleavage stood at 0.28.

Take C23U U34C: the self-cleavage amounted to 0.62.

On to C23U U34G, for which the self-cleavage amounted to 0.3.

As to C23A A25U, the self-cleavage is 0.78.

In the case of C23A A25C, the self-cleavage was 0.61.

C23A A25G: the self-cleavage is 0.49.

Regarding G22U U43A, the self-cleavage is 0.06.

For G22U U43G, the self-cleavage was found to be 0.03.

As for G22U U43C, the self-cleavage stood at 0.18.

With C23G U38C, the self-cleavage was 0.42.

As to C23G U38G, the self-cleavage amounted to 0.02.

Regarding C23G U38A, the self-cleavage was found to be 0.32.

Consider G22C U38G, for which the self-cleavage was found to be 0.05.

As to G22C U38C, the self-cleavage was 0.68.

Consider C23U C46U, for which the self-cleavage came out at 1.39.

With C23U C46G, the self-cleavage stood at 1.58.

C23U C46A: the self-cleavage is 1.4.

As for G22U, the self-cleavage worked out at 1.38.

Turning to C23U A26U, the self-cleavage was determined as 0.99.

Take C23U A26C: the self-cleavage came out at 0.64.

Take C23U A26G: the self-cleavage stood at 0.88.

For the variant C23G A41U, the self-cleavage was determined as 0.53.

Turning to C23G A41C, the self-cleavage worked out at 0.04.

On to C23G A41G, for which the self-cleavage stood at 0.37.

As to C23U U43A, the self-cleavage was 0.07.

For the variant C23U U43C, the self-cleavage was 0.43.

As to C23U U43G, the self-cleavage turned out to be 0.03.

As to C23A A39C, the self-cleavage is 0.27.

As to C23A A39G, the self-cleavage turned out to be 0.08.

Turning to C23A A39U, the self-cleavage amounted to 0.73.

As to C23A C42A, the self-cleavage amounted to 0.3.

On to C23A C42G, for which the self-cleavage stood at 0.06.

Turning to C23A C42U, the self-cleavage is 0.52.

For the variant C23A U38G, the self-cleavage came out at 0.02.

For the variant C23A U38A, the self-cleavage was determined as 0.28.

On to C23A U38C, for which the self-cleavage was 0.52.

On to G22U U28A, for which the self-cleavage came to 0.58.

Turning to G22U U28C, the self-cleavage was 0.42.

Regarding G22U U28G, the self-cleavage is 0.83.

For A24C C42A, the self-cleavage was 0.15.

For the variant A24C C42G, the self-cleavage amounted to 0.05.

Regarding A24C C42U, the self-cleavage is 0.13.

Consider C23U G29U, for which the self-cleavage is 0.85.

Regarding C23U G29A, the self-cleavage amounted to 1.11.

As for C23U G29C, the self-cleavage was found to be 0.52.

With C23A C46A, the self-cleavage was determined as 0.98.

On to C23A C46G, for which the self-cleavage amounted to 1.53.

Turning to C23A C46U, the self-cleavage stood at 1.1.

For C23A C37U, the self-cleavage is 0.03.

For the variant C23A C37G, the self-cleavage was 0.02.

For C23A C37A, the self-cleavage is 0.06.

Turning to C23G C46G, the self-cleavage turned out to be 0.6.

Take C23G C46U: the self-cleavage is 1.

Take C23G C46A: the self-cleavage stood at 1.07.

On to C23U A39C, for which the self-cleavage came to 0.29.

Take C23U A39G: the self-cleavage was 0.1.

As to C23U A39U, the self-cleavage came to 0.89.

In the case of C23U A41U, the self-cleavage was found to be 0.57.

Turning to C23U A41C, the self-cleavage stood at 0.06.

For C23U A41G, the self-cleavage came to 0.51.

C23G A26C: the self-cleavage stood at 0.88.

For C23G A26U, the self-cleavage worked out at 1.62.

On to C23G A26G, for which the self-cleavage came to 0.76.

With G22U A26U, the self-cleavage came to 1.59.

In the case of G22U A26G, the self-cleavage is 1.68.

Turning to G22U A26C, the self-cleavage stood at 1.53.

As for G22U A41G, the self-cleavage was 0.37.

Take G22U A41C: the self-cleavage was determined as 0.04.

On to G22U A41U, for which the self-cleavage is 0.72.

Take C23G U34G: the self-cleavage was found to be 0.23.

Turning to C23G U34C, the self-cleavage is 0.32.

Take C23G U34A: the self-cleavage worked out at 0.09.

Consider C23A A26C, for which the self-cleavage turned out to be 0.98.

Turning to C23A A26U, the self-cleavage was 0.88.

Regarding C23A A26G, the self-cleavage came out at 0.94.

As for A24C G27A, the self-cleavage came out at 0.77.

Regarding A24C G27U, the self-cleavage worked out at 0.55.

For A24C G27C, the self-cleavage was 0.77.

Regarding C23U G33C, the self-cleavage was 0.05.

On to C23U G33A, for which the self-cleavage worked out at 0.15.

For the variant C23U G33U, the self-cleavage was determined as 0.16.

As for G22U U38C, the self-cleavage stood at 2.12.

With G22U U38G, the self-cleavage was found to be 0.04.

As for G22U U38A, the self-cleavage worked out at 0.46.

For the variant C23U G40C, the self-cleavage amounted to 0.12.

C23U G40A: the self-cleavage is 0.12.

Take C23U G40U: the self-cleavage turned out to be 0.11.

Take A24C C37A: the self-cleavage amounted to 0.03.

Consider A24C C37G, for which the self-cleavage was 0.02.

In the case of A24C C37U, the self-cleavage was determined as 0.06.

Take C23G U32A: the self-cleavage was 0.07.

As for C23G U32C, the self-cleavage turned out to be 0.28.

In the case of C23G U32G, the self-cleavage was determined as 0.21.

Take C23U C42U: the self-cleavage amounted to 0.91.

In the case of C23U C42A, the self-cleavage was determined as 0.25.
